Square brackets hold non-standard residues; d marks the D form. Ends that are not written are not given here. sY = N[C@@H](Cc1ccc(OS(=O)(=O)O)cc1)C(=O)O
B1: AtPSK2 gene: gene of 545 bases (SEQ ID NO: 2) encoding 87-amino-acid phytosulfokine precursor of Arabidopsis thaliana (nucleic acid, listed as Arabidopsis thaliana)
DNA: TTTAAGCATCTCTCTCCCTTCAAAGAAAATATCACAAAAATGGCAAACGTCTCCGCTTTGCTCACCATAGCTCTTCTCCTTTGCTCCACGCTAATGTGCACTGCCCGCCCCGAACCGGCCATCTCCATCTCTATCACGACTGCTGCCGATCCATGTAACATGGAGAAGAAGATAGAAGGAAAATTAGATGACATGCATATGGTAGACGAAAACTGTGGTGCAGACGACGAAGATTGCTTAATGAGGAGGACTTTGGTCGCTCATACTGATTACATCTATACCCAGAAGAAGAAGCATCCTTGATTTTCACTTACTCATTTCTAACAAACTTTTGCTCAAGATTATGTAATTTATGTCATCCTTAATTAGTATTTGTCACATACAAGATCAAGATAGTTATGATTGTGATTATTTATATGTATTTTGGATGATATATTGTAGAACTAGAAGTTTGACAATAAAAAGTTTATAGTGTCGTTGTATGTTTAAGAAGTTTGACAATAAAAACTTTATAGTGTTGTTGCAAAAAAAAAAAAAAAAAAAAA
B2: AtPSKL gene: gene of 479 bases (SEQ ID NO: 4) encoding 79-amino-acid phytosulfokine precursor of Arabidopsis thaliana (nucleic acid, listed as Arabidopsis thaliana)
DNA: CTTCTCAGGCTCCCATTATCTTTCTCTATTTTGCAAATCAGTATGGGTAAGTTCACAACCATTTTCATCATGGCTCTCCTTCTTTGCTCTACGCTAACCTACGCAGCAAGGCTGACTCCGACGACAACCACCGCTTTGTCCAGAGAAAACTCCGTCAAGGAAATTGAAGGAGACAAGGTTGAAGAAGAAAGCTGCAACGGAATTGGAGAAGAAGAATGTTTGATAAGACGAAGCCTTCTTCTTCACACCGATTACATTTATACTCAGAATCACAAGCCCTAAGTTTCTGTATTAGAGCAATTAATTAACTAATTACATTATCAAACCTATCACTGTAGTACTTTCTGTTTTCTGTTCGTCTTTTTTGTTTTGTTTTGTTTATGTTATCGCTATTTTAAAGTTTCATTGTTATTTTGAAAGTTCTTACACCATCATTATTGATAGTCTCTTAAAACAAAAAAAAAAAAAAAAAAAAAAAA

Assays:
[1] = system: Arabidopsis cultured cells; test: Rate of cell division / proliferation of transgenic cells; assay type: cell-based, Arabidopsis thaliana; details: for Cell proliferation of transformed Arabidopsis cultured cells: cells transformed by the gene
Protocol: Constructs were transformed into Agrobacterium tumefaciens (C58C1Rif^R) by triparental mating (Van Haute et al., 1983), and Agrobacterium-mediated transformation of roots of Arabidopsis Columbia ecotype was essentially as described (Valvekens et al., 1988). Transgenic microcalli were generated by incubating co-cultivated root explants for 3 weeks on the callus induction medium (B5+0.5 mg/l 2,4-D and 0.05 mg/l KIN) supplemented with 50 mg/l Kan sulphate (Life Technologies, Grand Island, N.Y., USA) and 750 mg/l vancomycin hydrochloride (Wako, Osaka, Japan). The individual regenerating microcalli were transferred to fresh medium to ensure that all transformants were due to independent T-DNA insertions. To detect the introduced genes, genomic DNA was isolated from transgenic calli, digested with BamHI, and allowed to hybridize with the labeled cDNA as described above. Arabidopsis cells transformed with the binary vector alone served as controls.
To examine whether AtPSK2 and AtPSKL indeed code for precursors to PSK, we transformed 28-day-old Arabidopsis roots with artificially mutated AtPSK2 or AtPSKL cDNAs in the sense orientation designed to produce [Ser^4]PSK-α instead of PSK-α, and the wild-type cDNAs in sense and antisense orientations, respectively. The chimeric genes were placed under the control of the constitutive cauliflower mosaic virus (CaMV) 35S promoter incorporated within the binary vector pMAT037 (Matsuoka and Nakamura, 1991). Arabidopsis cells transformed with the binary vector alone served as controls. B5 medium (Gamborg et al., 1968) supplemented with 0.5 mg/L 2,4-dichlorophenoxyacetic acid (2,4-D) and 0.05 mg/L kinetin (KIN) was used to induce calli.
The rate of cell division was investigated on the transgenic cells. The results on AtPSK2 and AtPSKL are shown in FIGS. 12 and 13, respectively. In FIGS. 12 and 13, A indicates the result of the sense transgenic cells, B indicates the result of the control cells, C indicates the result of the antisense transgenic cells, respectively. […]

[2] = system: plant cell; details: relative to PSK-α; cited from earlier work
[3] = system: Arabidopsis cells; test: LC/MS quantification of PSK analogs secreted into conditioned medium (CM) by transgenic cells; assay type: cell-based, Arabidopsis thaliana; details: cells transformed by the gene
Source text: A 22-mer primer (5′-[…]-3′) based on the nucleic acid sequence of the AtPSK2 cDNA and A 24-mer primer (5′-[…]-3′) based on the nucleic acid sequence of the AtPSKL cDNA were synthesized and used to obtain the mutated cDNAs that were designed to produce unnatural [Ser^4]PSK-α instead of PSK-α. Mutations were introduced with a LA PCR In Vitro Mutagenesis Kit (Takara) and confirmed by sequencing. The pMAT037 (Matsuoka and Nakamura, 1991) was employed as a binary vector for Arabidopsis root transformation. Original or mutated cDNAs were digested with SacI and HindIII or KpnI and inserted in-frame into the same sites of the vectors to construct chimeric genes harboring the cDNA in sense or antisense orientations, respectively. Expression of the chimeric genes was driven by the promoter of the CaMV 35S transcript.
Constructs were transformed into Agrobacterium tumefaciens (C58C1Rif^R) by triparental mating (Van Haute et al., 1983), and Agrobacterium-mediated transformation of roots of Arabidopsis Columbia ecotype was essentially as described (Valvekens et al., 1988). […]
Mass spectra were obtained using a Fisons VG platform quadruple mass spectrometer with electrospray ionization interfaced to a Jasco PU 980 HPLC system. […] The semiquantitative amounts of the PSK-α, PSK-β, [Ser^4]PSK-α and [Ser^4]PSK-β in CM were measured based on the peak heights without an internal standard. […]

Row | Molecule | Effect of supplementation in the medium on decreased mitogenic activity of antisense transgenic cells ([1]; PSK-α added to medium of antisense transgenic cells) | Cell proliferation activity compared to that of PSK-α [2] | Cell proliferation of transformed Arabidopsis cultured cells [1] | Secretion of PSK by transformed Arabidopsis cultured cells [3]
1 | [sY]I[sY]TQ [PSK-α, reference compound] | alternated in part | – | – | –
2 | [sY]I[sY]T [PSK-β] | – | less than one-tenth | – | –
3 | B1 | – | – | cell proliferation was enhanced | could secret the PSK
4 | B2 | – | – | cell proliferation was enhanced | could secret the PSK

From US20030032777A1, “Precursor polypeptide of phytosulfokine derived from Arabidopsis thaliana and a gene encoding said polypeptide” (priority 2001, published 2003)
